Numbered stars: 1 amine (or outer) side, 2 acyl side, 3 side chain; on linkers, the order of the positions; unused ones are H or OH. Side chains are listed from the residue outwards. Ends that are not written are not given here. * marks the point of attachment. γGlu = O=C(O)[C@H](CCC(=O)[*:2])N[*:1]; Palmitoyl = CCCCCCCCCCCCCCCC(=O)*; Ahx = NCCCCCC(=O)O; βAla = NCCC(=O)O
Key:
Assay in all cases: cell-based or functional assay
[1] = molecular target: human glucagon receptor (human, UniProt P47871 26-477)
[2] = molecular target: T1, human glucose-dependent insulinotropic peptide (gastric inhibitory polypeptide) receptor (human) (UniProt P48546)
T1 sequence (looked up): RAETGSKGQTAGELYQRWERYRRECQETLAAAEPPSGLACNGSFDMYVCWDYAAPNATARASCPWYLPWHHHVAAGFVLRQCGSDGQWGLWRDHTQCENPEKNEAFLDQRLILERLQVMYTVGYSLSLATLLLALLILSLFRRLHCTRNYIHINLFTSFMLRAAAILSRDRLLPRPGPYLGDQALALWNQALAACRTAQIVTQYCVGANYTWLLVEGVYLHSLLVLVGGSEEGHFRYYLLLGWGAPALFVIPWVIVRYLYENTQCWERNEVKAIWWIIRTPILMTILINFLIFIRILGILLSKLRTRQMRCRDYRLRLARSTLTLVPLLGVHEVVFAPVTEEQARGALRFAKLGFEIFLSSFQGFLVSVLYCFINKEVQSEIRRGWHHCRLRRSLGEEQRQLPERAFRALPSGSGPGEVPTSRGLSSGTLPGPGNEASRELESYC

[3] = molecular target: human GLP-1 receptor (human, UniProt P43220 24-463)
human GLP-1 receptor, sequence (P43220 24-463): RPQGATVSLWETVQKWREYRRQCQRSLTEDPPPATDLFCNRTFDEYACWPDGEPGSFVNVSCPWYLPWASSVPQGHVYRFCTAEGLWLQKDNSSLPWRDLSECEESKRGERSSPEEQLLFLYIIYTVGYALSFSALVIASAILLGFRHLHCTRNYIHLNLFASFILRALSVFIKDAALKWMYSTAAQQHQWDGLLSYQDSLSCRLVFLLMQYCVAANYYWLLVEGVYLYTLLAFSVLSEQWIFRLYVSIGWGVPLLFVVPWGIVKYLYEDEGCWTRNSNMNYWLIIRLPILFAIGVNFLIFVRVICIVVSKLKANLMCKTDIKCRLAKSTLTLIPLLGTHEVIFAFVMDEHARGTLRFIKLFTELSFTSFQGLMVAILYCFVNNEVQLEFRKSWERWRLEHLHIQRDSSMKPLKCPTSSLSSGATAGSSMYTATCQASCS

human glucagon receptor, sequence (P47871 26-477): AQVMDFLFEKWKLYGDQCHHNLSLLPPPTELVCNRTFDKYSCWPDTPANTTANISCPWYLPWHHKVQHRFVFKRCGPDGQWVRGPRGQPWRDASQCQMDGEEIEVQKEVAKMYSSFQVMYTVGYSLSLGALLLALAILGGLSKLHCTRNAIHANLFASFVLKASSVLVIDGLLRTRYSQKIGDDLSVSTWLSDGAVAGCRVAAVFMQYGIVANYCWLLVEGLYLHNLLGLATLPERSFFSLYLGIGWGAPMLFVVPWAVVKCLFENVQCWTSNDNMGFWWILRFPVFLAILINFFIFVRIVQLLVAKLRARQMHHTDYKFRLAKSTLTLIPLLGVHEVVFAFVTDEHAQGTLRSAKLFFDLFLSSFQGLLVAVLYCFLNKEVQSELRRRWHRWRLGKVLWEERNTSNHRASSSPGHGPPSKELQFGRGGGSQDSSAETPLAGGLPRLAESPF

B1: g684 (peptide)
peptide: HGQGTFTSDYSEYLDSK([Ahx-Palmitoyl])RARDFVAWLERGG-NH2
modifications: N-terminus assumed
SMILES: CCCCCCCCCCCCCCCC(=O)NCCCCCC(=O)NCCCC[C@H](NC(=O)[C@H](CO)NC(=O)[C@H](CC(=O)O)NC(=O)[C@H](CC(C)C)NC(=O)[C@H](Cc1ccc(O)cc1)NC(=O)[C@H](CCC(=O)O)NC(=O)[C@H](CO)NC(=O)[C@H](Cc1ccc(O)cc1)NC(=O)[C@H](CC(=O)O)NC(=O)[C@H](CO)NC(=O)[C@@H](NC(=O)[C@H](Cc1ccccc1)NC(=O)[C@@H](NC(=O)CNC(=O)[C@H](CCC(N)=O)NC(=O)CNC(=O)[C@@H](N)Cc1c[nH]cn1)[C@@H](C)O)[C@@H](C)O)C(=O)N[C@@H](CCCNC(=N)N)C(=O)N[C@@H](C)C(=O)N[C@@H](CCCNC(=N)N)C(=O)N[C@@H](CC(=O)O)C(=O)N[C@@H](Cc1ccccc1)C(=O)N[C@H](C(=O)N[C@@H](C)C(=O)N[C@@H](Cc1c[nH]c2ccccc12)C(=O)N[C@@H](CC(C)C)C(=O)N[C@@H](CCC(=O)O)C(=O)N[C@@H](CCCNC(=N)N)C(=O)NCC(=O)NCC(N)=O)C(C)C
[1]
  cAMP EC50 (assay 1): 0.164 nM
[2]
  cAMP EC50 (assay 1): 146 nM
[3]
  cAMP EC50 (assay 1): 0.0151 nM

B2: g721 (peptide)
peptide: HGQGTFTSDYSEYLDSK([γGlu-Palmitoyl])RARDFVAWLERGG-NH2
modifications: N-terminus assumed
SMILES: CCCCCCCCCCCCCCCC(=O)N[C@@H](CCC(=O)NCCCC[C@H](NC(=O)[C@H](CO)NC(=O)[C@H](CC(=O)O)NC(=O)[C@H](CC(C)C)NC(=O)[C@H](Cc1ccc(O)cc1)NC(=O)[C@H](CCC(=O)O)NC(=O)[C@H](CO)NC(=O)[C@H](Cc1ccc(O)cc1)NC(=O)[C@H](CC(=O)O)NC(=O)[C@H](CO)NC(=O)[C@@H](NC(=O)[C@H](Cc1ccccc1)NC(=O)[C@@H](NC(=O)CNC(=O)[C@H](CCC(N)=O)NC(=O)CNC(=O)[C@@H](N)Cc1c[nH]cn1)[C@@H](C)O)[C@@H](C)O)C(=O)N[C@@H](CCCNC(=N)N)C(=O)N[C@@H](C)C(=O)N[C@@H](CCCNC(=N)N)C(=O)N[C@@H](CC(=O)O)C(=O)N[C@@H](Cc1ccccc1)C(=O)N[C@H](C(=O)N[C@@H](C)C(=O)N[C@@H](Cc1c[nH]c2ccccc12)C(=O)N[C@@H](CC(C)C)C(=O)N[C@@H](CCC(=O)O)C(=O)N[C@@H](CCCNC(=N)N)C(=O)NCC(=O)NCC(N)=O)C(C)C)C(=O)O
[1]
  cAMP EC50 (assay 1): 3.23 nM
[2]
  cAMP EC50 (assay 1): 979 nM
[3]
  cAMP EC50 (assay 1): 0.411 nM

B3: g783 (peptide)
peptide: HSQGTFTSDYSEYLDSK([βAla-Palmitoyl])RARDFVAWLEAGG-NH2
modifications: N-terminus assumed
SMILES: CCCCCCCCCCCCCCCC(=O)NCCC(=O)NCCCC[C@H](NC(=O)[C@H](CO)NC(=O)[C@H](CC(=O)O)NC(=O)[C@H](CC(C)C)NC(=O)[C@H](Cc1ccc(O)cc1)NC(=O)[C@H](CCC(=O)O)NC(=O)[C@H](CO)NC(=O)[C@H](Cc1ccc(O)cc1)NC(=O)[C@H](CC(=O)O)NC(=O)[C@H](CO)NC(=O)[C@@H](NC(=O)[C@H](Cc1ccccc1)NC(=O)[C@@H](NC(=O)CNC(=O)[C@H](CCC(N)=O)NC(=O)[C@H](CO)NC(=O)[C@@H](N)Cc1c[nH]cn1)[C@@H](C)O)[C@@H](C)O)C(=O)N[C@@H](CCCNC(=N)N)C(=O)N[C@@H](C)C(=O)N[C@@H](CCCNC(=N)N)C(=O)N[C@@H](CC(=O)O)C(=O)N[C@@H](Cc1ccccc1)C(=O)N[C@H](C(=O)N[C@@H](C)C(=O)N[C@@H](Cc1c[nH]c2ccccc12)C(=O)N[C@@H](CC(C)C)C(=O)N[C@@H](CCC(=O)O)C(=O)N[C@@H](C)C(=O)NCC(=O)NCC(N)=O)C(C)C
[1]
  cAMP EC50 (assay 1): 0.0911 nM
[2]
  cAMP EC50 (assay 1): 846 nM
[3]
  cAMP EC50 (assay 1): 0.0424 nM

## HSQGTFTSDYSEYLDSK([βAla-Palmitoyl])RARDFVAWLERGG-NH2 (not fully specified) [g795]
[1]
  cAMP EC50 (assay 1): 0.11 nM
[2]
  cAMP EC50 (assay 1): 579 nM
[3]
  cAMP EC50 (assay 1): 0.0734 nM

## HSQGTFTSDYSEYLDSK([γGlu-Palmitoyl])RARDFVAWLERGG-NH2 (not fully specified) [g772]
[1]
  cAMP EC50 (assay 1): 0.184 nM
[2]
  cAMP EC50 (assay 1): 1540 nM
[3]
  cAMP EC50 (assay 1): 0.292 nM

B4: g588 (peptide)
peptide: HGQGTFTSDYSKYLDSK([γGlu-Palmitoyl])RAQDFVQWLERGG-NH2
modifications: N-terminus assumed
SMILES: CCCCCCCCCCCCCCCC(=O)N[C@@H](CCC(=O)NCCCC[C@H](NC(=O)[C@H](CO)NC(=O)[C@H](CC(=O)O)NC(=O)[C@H](CC(C)C)NC(=O)[C@H](Cc1ccc(O)cc1)NC(=O)[C@H](CCCCN)NC(=O)[C@H](CO)NC(=O)[C@H](Cc1ccc(O)cc1)NC(=O)[C@H](CC(=O)O)NC(=O)[C@H](CO)NC(=O)[C@@H](NC(=O)[C@H](Cc1ccccc1)NC(=O)[C@@H](NC(=O)CNC(=O)[C@H](CCC(N)=O)NC(=O)CNC(=O)[C@@H](N)Cc1c[nH]cn1)[C@@H](C)O)[C@@H](C)O)C(=O)N[C@@H](CCCNC(=N)N)C(=O)N[C@@H](C)C(=O)N[C@@H](CCC(N)=O)C(=O)N[C@@H](CC(=O)O)C(=O)N[C@@H](Cc1ccccc1)C(=O)N[C@H](C(=O)N[C@@H](CCC(N)=O)C(=O)N[C@@H](Cc1c[nH]c2ccccc12)C(=O)N[C@@H](CC(C)C)C(=O)N[C@@H](CCC(=O)O)C(=O)N[C@@H](CCCNC(=N)N)C(=O)NCC(=O)NCC(N)=O)C(C)C)C(=O)O
[1]
  cAMP EC50 (assay 1): 0.0723 nM
[2]
  cAMP EC50 (assay 1): 98 nM
[3]
  cAMP EC50 (assay 1): 0.11 nM

B5: g724 (peptide)
peptide: HGEGTFTSDYSEYLDSK([Ahx-Palmitoyl])RARDFVAWLERGG-NH2
modifications: N-terminus assumed
SMILES: CCCCCCCCCCCCCCCC(=O)NCCCCCC(=O)NCCCC[C@H](NC(=O)[C@H](CO)NC(=O)[C@H](CC(=O)O)NC(=O)[C@H](CC(C)C)NC(=O)[C@H](Cc1ccc(O)cc1)NC(=O)[C@H](CCC(=O)O)NC(=O)[C@H](CO)NC(=O)[C@H](Cc1ccc(O)cc1)NC(=O)[C@H](CC(=O)O)NC(=O)[C@H](CO)NC(=O)[C@@H](NC(=O)[C@H](Cc1ccccc1)NC(=O)[C@@H](NC(=O)CNC(=O)[C@H](CCC(=O)O)NC(=O)CNC(=O)[C@@H](N)Cc1c[nH]cn1)[C@@H](C)O)[C@@H](C)O)C(=O)N[C@@H](CCCNC(=N)N)C(=O)N[C@@H](C)C(=O)N[C@@H](CCCNC(=N)N)C(=O)N[C@@H](CC(=O)O)C(=O)N[C@@H](Cc1ccccc1)C(=O)N[C@H](C(=O)N[C@@H](C)C(=O)N[C@@H](Cc1c[nH]c2ccccc12)C(=O)N[C@@H](CC(C)C)C(=O)N[C@@H](CCC(=O)O)C(=O)N[C@@H](CCCNC(=N)N)C(=O)NCC(=O)NCC(N)=O)C(C)C
[1]
  cAMP EC50 (assay 1): 30.9 nM
[2]
  cAMP EC50 (assay 1): 933 nM
[3]
  cAMP EC50 (assay 1): 0.019 nM

B6: g819 (peptide)
peptide: HSQGTFTSDYSKYLDSK([βAla-Palmitoyl])RARDFVAWLEAGG-NH2
modifications: N-terminus assumed
SMILES: CCCCCCCCCCCCCCCC(=O)NCCC(=O)NCCCC[C@H](NC(=O)[C@H](CO)NC(=O)[C@H](CC(=O)O)NC(=O)[C@H](CC(C)C)NC(=O)[C@H](Cc1ccc(O)cc1)NC(=O)[C@H](CCCCN)NC(=O)[C@H](CO)NC(=O)[C@H](Cc1ccc(O)cc1)NC(=O)[C@H](CC(=O)O)NC(=O)[C@H](CO)NC(=O)[C@@H](NC(=O)[C@H](Cc1ccccc1)NC(=O)[C@@H](NC(=O)CNC(=O)[C@H](CCC(N)=O)NC(=O)[C@H](CO)NC(=O)[C@@H](N)Cc1c[nH]cn1)[C@@H](C)O)[C@@H](C)O)C(=O)N[C@@H](CCCNC(=N)N)C(=O)N[C@@H](C)C(=O)N[C@@H](CCCNC(=N)N)C(=O)N[C@@H](CC(=O)O)C(=O)N[C@@H](Cc1ccccc1)C(=O)N[C@H](C(=O)N[C@@H](C)C(=O)N[C@@H](Cc1c[nH]c2ccccc12)C(=O)N[C@@H](CC(C)C)C(=O)N[C@@H](CCC(=O)O)C(=O)N[C@@H](C)C(=O)NCC(=O)NCC(N)=O)C(C)C
[1]
  cAMP EC50 (assay 1): 0.00234 nM
[2]
  cAMP EC50 (assay 1): 103 nM
[3]
  cAMP EC50 (assay 1): 0.018 nM

## HSQGTFTSDYSEYLDSK([Ahx-Palmitoyl])RARDFVEWLENT-NH2 (not fully specified) [g825]
[1]
  cAMP EC50 (assay 1): 0.00367 nM
[2]
  cAMP EC50 (assay 1): 86.7 nM
[3]
  cAMP EC50 (assay 1): 0.0191 nM

B7: g614 (peptide)
peptide: HSQGTFTSDYSEYLDSK([Ahx-Palmitoyl])RAQDFVQWLERGG-NH2
modifications: N-terminus assumed
SMILES: CCCCCCCCCCCCCCCC(=O)NCCCCCC(=O)NCCCC[C@H](NC(=O)[C@H](CO)NC(=O)[C@H](CC(=O)O)NC(=O)[C@H](CC(C)C)NC(=O)[C@H](Cc1ccc(O)cc1)NC(=O)[C@H](CCC(=O)O)NC(=O)[C@H](CO)NC(=O)[C@H](Cc1ccc(O)cc1)NC(=O)[C@H](CC(=O)O)NC(=O)[C@H](CO)NC(=O)[C@@H](NC(=O)[C@H](Cc1ccccc1)NC(=O)[C@@H](NC(=O)CNC(=O)[C@H](CCC(N)=O)NC(=O)[C@H](CO)NC(=O)[C@@H](N)Cc1c[nH]cn1)[C@@H](C)O)[C@@H](C)O)C(=O)N[C@@H](CCCNC(=N)N)C(=O)N[C@@H](C)C(=O)N[C@@H](CCC(N)=O)C(=O)N[C@@H](CC(=O)O)C(=O)N[C@@H](Cc1ccccc1)C(=O)N[C@H](C(=O)N[C@@H](CCC(N)=O)C(=O)N[C@@H](Cc1c[nH]c2ccccc12)C(=O)N[C@@H](CC(C)C)C(=O)N[C@@H](CCC(=O)O)C(=O)N[C@@H](CCCNC(=N)N)C(=O)NCC(=O)NCC(N)=O)C(C)C
[1]
  cAMP EC50 (assay 1): 0.00365 nM
[2]
  cAMP EC50 (assay 1): 99.3 nM
[3]
  cAMP EC50 (assay 1): 0.00931 nM
